Reference: the supplement of paper PMC10567573

B1: MFF (parent)
chain: DDLTVVDAASLRRQIIKLNRRLQL

Variants of: B1
Assay: protein stability index of a GFP-peptide fusion (GPS, HEK-293T) (PSI 1-6); higher = more stable
Settings: c terminus: a fixed tail appended
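Further: lentivirally expressed fusions sorted by FACS into six bins by GFP to DsRed ratio, PSI derived from sequencing read proportions per bin multiplied by bin number.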

Protein stability index: each site, then its substitutions
Q23: E 2.5 | K 2.38 | D 2.33 | T 2.08 | A 1.57 | V 1.34 | H 1.5 | P 2.62 | N 2.31 | R 2.23 | S 2.63 | F 2.32 | M 2.43 | C 1.91 | I 2.14 | G 2.5 | L 2.15
L22: N 3.78 | I 1.99 | T 2.62 | H 2.95 | Y 2.7 | K 3.74 | D 3.95 | G 3.13 | M 3.02 | P 3.52 | E 2.77 | F 2.36 | Q 3.21 | W 2.4 | S 3.6 | R 3.01 | V 2.61
L24: P 2.89 | M 1.71 | Y 1.72 | H 2.21 | C 2.06 | S 2.42 | G 2.56 | A 2.29 | N 2.35 | F 1.8 | K 2.99 | R 2.74 | D 2.77 | T 2.38 | I 2.32 | W 1.94 | V 3.01 | E 2.23 | Q 2.89
